The results in this text go back to patent US20240026407A1, “MODIFICATION OF SAPONINS” (GLAXOSMITHKLINE BIOLOGICALS SA, priority 2020, published 2024).

The labels stand for the following.
B1: 1031 (protein, listed as Pedobacter heparinus)
chain: MTNFSCIAKRITSFLMLFLSCSPFITAQVKSGTIVYPRGSFDADWISCPDVNLKSYGVFHMRKVFELTSRPKQFVVHVSGDQRYRLFANGTPVCFGPARGDLRNWNYETIDIAPYLKTGKNVLAVQLWNMGSGAPAAQLTYQTGFILQGNSNAEQMVNTNNSWRIIQNKGYFPEPFPPSRLASYIVGSCDSVVFKNYPFGWQNINYDDKSWLSPVSETKPRYYTEKRSLIPRSIPMMEEKIEPITGIVRILGTDTSAILNSFNKNGSITIPANTKATILFDRKTLTTAYPEITFSKGSNGKVKITYAESLFNSENLKGNRNEIKNKTIKGYYDVFLPDGGTAHTFRPLWTRTFRYIQFDITTGSEPMVIDKMQSVFTAYPFKEHAFFTSNDSTLHEIWDVSWRTARLCANETYMDCPYYEQLQYVGDTRIQALISLYVSGDDRLMRNAIEQFHQSQIPDGLTMDAYPAGGGKFIPPFSLFWIAMLHDFYWYRDDEKFIEKYLIPMEAILKWFEYRLDNNSGMLGKTGYWNFVDWSFSPKGIPSGGLEGNSSILSLQYVYALEQAAEIFAHAKQQQKADYYHNLGQKIKRAVYARCYDINNRLLADSPERKAFSQHANIWSIITDCIPFKDQEATMERIMNDSTLTATSLYYRFYYTKAMKKAGLGSLYLSSLRPWKQMLDLGFSTFPETLAPNVRSDCHAWSASPCYDFLATVCGIEPGTPGFATVRISPNLGNLKAVSGELPHPLGPIKVSYKKIKEGSYSAHIELPANLNGIFISKDQKVILTGGKQEITFKYE
B2: 1040 (protein, listed as Rhodopirellula baltica)
chain: MNEDGWQDRRQLPRFSWIRLAKGRSAELSSIPVRPLKMLLSILFLTVITVAASSSVSALEPQRLRCEYLENPTGIDAARTRLSWQVTSDQRGQSQIAYRLLVASSEEQLGSGVGDLWDSGKVKSDQTLFVEYAGKPLSSRQECFWKVQVWDGAGNATESEVASWSMGLLDQSDWSAEYISYRDDSPIHTDLSTLHLPAARQYRKEFSASKSIKRATVYATALGIYELHLNGQRVGDASFAPGWTDYRKRAYYNTYDVTNLVREGDNAIGAWVADGWYSGYVGFGLLTGMGPEKNGRSTYGKTPSFMSQLEIEFEDGTKQTIGTDTTWKVTGEGPIQEADLLMGESYDARREMVGWSEPGFDHDHWDDAILAKQNGQVTAAFYEFRNPTTTGAGVKKVGEQRDFGFKRPELEAFPGVPVRVTQEIPAKTVSKLEPGTFVFDLGQNFAGTIRLKIKGREGERIQLRYGEMLHPDGRLMTENLRKARATDYYTCKGNPDGEFYQPRFTFHGFQFVEVKRLSDSSEDAGKATDSQNVQTPPLDMVTGLVLHSDTPMASTFECSDPMVNQLFKNVLWTQRANFLDLPTDCPQRDERMGWTGDAQAYVATAAYNADIGAFYTKWLRELMESQRPSGAFPGYAPYPFQHGWDFGTAWADAGVICPWTIWQFYGDTRVIDDCWEPMTRFMRWRKQTSVNDLGVSHGNAWGDWLSQGEETPLDYIDTVYFAISARMMAEMAEATGRDEEAKLYREQRAATQAAFQAKYLNEDGSITVRTQTAQALALFADLVPAEQREATGKYLAKRLSENGNHMATGFLGTRPLLPVLSGSGQHDLATFLLQSREFPSWGYEISNGATTIWERWDSYTKEDAFGRHNAAMNSFSHYAFGAVCEWMFATLAGIQSDGPGFKRIVIRPTPPSPGSNAMHEPINWVKASYESIRGTIRSEWKMVDGRFHLNVTIPANTTATVYLPTNDANSITESGNALADTANVSLLRKETNVVALTVHSGSYEFLASSGIVPAKVSLKSSEPKDNSINPGEIDLTDATKLESWDFRNPQDLAKWGERKSVDIEQRNGSAYLVATGDDSQMAVRMTKPLEGKLVIELRASPSQNSTSQFYWAIPGRGFNGQQQTKRLLRQSDAVNAYLFAIPDALTVGKLRFDPFATYDEYANAGEMMIESISIYRLVD
B3: 995 (protein)
chain: MILLGALSLASSTFAQTWIWYPGDYEIWLGNQMNNRRTERGAFFPPFWKTDSHYVVVEFSKVLNLSEPEEVFIAAEGTYNVKLDGKLQFGMPETLLLPAGKHSLNIKVWNQATPPTIYVKGKTVNSDSSWRVTYEDKEWIDESGKASDTSATIYMDAGCWNFDGATQRPSQFSLMREPQQPVAKTEQPEGGILYDFGKETFGFITLKNLSGKGKIDLYYGESPEEAKDKAYCETLDKLLLEPGQITDLAIRSTSPLHHSDNEYTLENSKAFRYVYITHEPEVQIGEVSMQYEYLPEEYRGNFRCNDEELNCIWEVGAYTMHLTTREFFIDGIKRDRWVWSGDAIQSYLMNYYLFFDSESVKRTIWLLRGKDPVTSHSNTIMDYTFYWFLSVYDYYMYSGDRHFVNQLYPRMQTMMDYVLGRTNKNGMVEGMSGDWVFVDWADGYLDKKGELSFEQVLFCRSLETMALCADLVGDKDGQQKYEKLASALKAKLEPTFWNNQKQAFVHNCVDGRQSDAVTRYANMFSVFFDYLNADKQQAIKQSVLLNDEILKITTPYMRFYELEALCALGEQETVMKEMKAYWGGMLKAGATSFWEKYNPEESGTQHLAMYGRPYGKSLCHAWGASPIYLLGKYYLGVKPTKEGYKEFAVSPVLGGLKWMEGTVPTPNGDIHVYMDNKTIKVKATEGKGYLTIQSRRQPKANMGTVEKVSEGVWRLWIDSPEERIVTYRL
modifications: Bacteroides thetaiotaomicron
B4: 1050 (protein, listed as Streptomyces bottropensis)
chain: MNNAPYDLRIDTGGDQFAVSGPAPRLSWKPPSDTGHPAGYELECTVDGDAQPALRVAPGRHRFLPWPWAALGSGRQVEWRVRADGPGGPTPWSEWNAFEVGLLDEDWQARWISPAESGDPGYGKRPAHTLTARFEVRAGVRSARLYATALGLYEAYVNGERAGTAELSPGSTSYDRTLHAQASDVTAAVRAGGNLVEIVLSDGWYRGQVGAFRLPAGWGTVLGARAELHIAYEDGSRQVVRSDETWTSTRSAITRADLMDGQSTDFRAGRDTEQPVLVDRVEAAAIDWSPAPPVRVVASRPAQSVKQLRDGLWIADFGQNASGRLAVGDLGPAGTRTVIDYGEHVGPDGDLTTAHLDSSRPGEEPIPFVQRDEVVSMGRGETFEPRHTVHGFQYARIRRDGAPLDPASLTMRVVHTDLRRAGSFACSDDDLNRLHEIADWSFRGNAVDVPTDCPTRERLAWTGDYQVFAPTATRLYDVLGFSRKWLRSVRDDQLPDGRIANFSPDGRRIKHHLDDQFAMMTGSAGWGDAIVAVPWELYQSYGDQEILAENWEAMVRWVEWALRTARTARHHSRRERSAEPRPHERYLWDGSFHWGEWTEPRTKTADGTRIDPVKTDPVAWFMADKGEVGTAFLYRSTSTLADVARVLGRTEDAARYAETAEHVRDAWRTEFLTPDGRTTGDTQAGYVRALSLGLVPAELRPAAAARLVELIRSAGTHLGTGFLATGDLLPVLADTGHTDMAYELLLRRTAPSWLYMLDHGATTIWEDWEGIDENGDAHDSLNHYSKGAVIRFLHTHTLGLRQAPGSVAWESVEVAPVPHPSLTWARGTHESPQGTIAVEWRTTGDELTLAVDVPPATTARVVFPDGTTETATTGTFRATRRITCASSARSARAPGDEPLVRSEGATD
B5: 1078 (protein, listed as Flavobacterium johnsoniae)
chain: MFQKKHLFFILLLASIVSAQEVHKKETNFQPTLESSKPWVYWYWMKSAYSKPGITADLEAMKQAGIAGAYLMTIKGPANPPLIDPPVLQLTPEFWDMIHWAFKEADRLGLKLAFHGADGFAVAGGPWITPEMSMQKIVWSTTEILGGKKVTSKLPVPAHYKDYYKNIATFAIPIKEYEITSQMQLPKVTTSNNTDASFLADPKKDENFKFADAGWIQYEFAQPFTCKSIVIETKGRDFQAQRLIVEVSDDGVNFRFHERMIAPRHGWQDMDFPNTHTITPVTAKYFRFVCDPKGTEPGAEDLDFAKWKQNLKVSKITLSNQSLINNYEGKSGAIWRLTPQTTEKEIPNSDAFKKSEIINISNFVDADGNLNWKAPKGKWKILRMGHTSTGHENATGGAGKGLEVDKFNPELIRFQLDHWFGEAVRSAGPELTSKVLEILHFDSWECGSQNWSSVFQTEFKKRRGYDLVEYLPVMAGIPVESADFSEKVLYDIRKTIADLVADNFYGTIAQIAKEYNVKLSAENVAPVVTSDALLHYKYVDYPSGEFWLKSPTHDKPFDMVDAISGGHIYGKDIIQAESFTALRMDWDEHPGNLKTTADRNYALGINRLFYHVFVHNPWTDRKPGMTLDDIGTFFQRDQTWWKPGKAWFDYCQRVQFQLQKGKPIIDLAVFSGEDFPSRSFVPDRLVPFIPNVFGKERLESEKIRLENEGQPTAKMPKEVTYSKNITDLSQWINPLNGYQYDSFNADVLINRAKVINGKISFEGGIEYGALFFPGSHKMAPNKMLSLASAEKILQLLKDGATIFVDEKPNLQPGVQSEADQKKWQNVIDEIWNNTNSATWKIGKGTVIKLPYLGNDFASIGISQDVYFTNLNRVDSETLAWAHRKSDTEDIYFISNQKAEKRTFDASFRILGKVPQWYNPVTDKTSALDNWKIENGRTIVSITLDANESGFVMFKEETKEILAKGRSSEFEKVQTLDENWKLQFDTEFKGPKEVVKINKLFDWSTSENDQIKYYSGTVVYKKEFIWKGKDSSKTWLDLGEISNIAEIKINGKDCGALWTFPFKTDISKALQKGKNTIEIKVTNTWANRLIGDQKLPKEERLTWTTAPFRLEGEPLLKAGLLGPVIIVKEK

One test in a line: Experiment 6-1: screening of rhamnosidases for derhamnosylation of saponins in treated bark extract (2%), QS-17 2296 to QS-18 2150 (PAR %). It counts as biochemical, Quillaja saponaria. Conditions: TBE 2%, pH 7.5, 30 degC, 18 h; TIC peak area ratio percent of rhamnosylated starting saponin to derhamnosylated product, LCMS/MS; negative controls 4.876, 5.225.
With B1, the “QS-17 (PAR %)” value turned out to be 5.218%.

Turning to B2, the “QS-17 (PAR %)” value is reported as 5.244%.

As for B3, the “QS-17 (PAR %)” value stood at 5.223%.

As for B4, the “QS-17 (PAR %)” value was determined as 5.251%.

For the molecule B5, the “QS-17 (PAR %)” value is on record as 5.218%.

A further test in a line: Experiment 6-1: screening of rhamnosidases for derhamnosylation of saponins in treated bark extract (2%), desglucosyl-QS-17 2134 to QS-21 1988 (PAR %). It counts as biochemical, Quillaja saponaria. The conditions noted are these: TBE 2%, pH 7.5, 30 degC, 18 h; TIC peak area ratio percent, LCMS/MS; negative controls 2.719, 2.158.
Regarding B1, the “Peak75 (PAR %)” value is 2.367%.

For the molecule B2, the “Peak75 (PAR %)” value came to 2.372%.

Regarding B3, the “Peak75 (PAR %)” value turned out to be 2.545%.

Consider B4, for which the “Peak75 (PAR %)” value is recorded as 2.528%.

With B5, the “Peak75 (PAR %)” value is recorded as 2.153%.

The nature of another test: Experiment 6-1: specificity of rhamnosidases towards other rhamnose residues (C3 saccharide rhamnose, C28 saccharide rhamnose). Conditions: TBE 2%, pH 7.5, 30 degC, 18 h; LCMS/MS; negative controls 0.18, 0.17. It counts as biochemical, Quillaja saponaria.
On to B1, for which the “ratio PP/QS-21” value is 0.17.

Take B2: the “ratio PP/QS-21” value is listed as 0.18.

Take B3: the “ratio PP/QS-21” value is 0.17.

As to B4, the “ratio PP/QS-21” value was found to be 0.17.

In the case of B5, the “ratio PP/QS-21” value came out at 0.16.

Another test is described as follows: Experiment 6-1: screening of rhamnosidases for derhamnosylation of saponins in treated bark extract (2%), QS-17 2310 to QS-18 2164 (PAR %). The conditions noted are these: TBE 2%, pH 7.5, 30 degC, 18 h; TIC peak area ratio percent, LCMS/MS; negative controls 3.061, 2.429. It counts as biochemical, Quillaja saponaria.
On to B1, for which the “Peak57 (PAR %)” value was 3.096%.

As for B2, the “Peak57 (PAR %)” value stood at 3.084%.

For the molecule B3, the “Peak57 (PAR %)” value is given as 3.002%.

With B4, the “Peak57 (PAR %)” value stood at 2.305%.

Regarding B5, the “Peak57 (PAR %)” value is 2.788%.
